According to article PMC3076715:
Where two headings read alike, the source gives them in different places.

Experiments:
Experiment in all cases: fluorescence polarization
Dnmt3a-CD [1] = target: T1, Dnmt3a-CD (murine, UniProt O88508 608-908)
Dnmt3a-CD [2] = target: T1, Dnmt3a-CD; remark: listed apart in the source
Dnmt3a-CD [3] = target: T1, Dnmt3a-CD; remark: listed apart in the source
M.SssI = M.SssI (UniProt P15840 1-386)
Sequence of M.SssI (P15840 whole entry): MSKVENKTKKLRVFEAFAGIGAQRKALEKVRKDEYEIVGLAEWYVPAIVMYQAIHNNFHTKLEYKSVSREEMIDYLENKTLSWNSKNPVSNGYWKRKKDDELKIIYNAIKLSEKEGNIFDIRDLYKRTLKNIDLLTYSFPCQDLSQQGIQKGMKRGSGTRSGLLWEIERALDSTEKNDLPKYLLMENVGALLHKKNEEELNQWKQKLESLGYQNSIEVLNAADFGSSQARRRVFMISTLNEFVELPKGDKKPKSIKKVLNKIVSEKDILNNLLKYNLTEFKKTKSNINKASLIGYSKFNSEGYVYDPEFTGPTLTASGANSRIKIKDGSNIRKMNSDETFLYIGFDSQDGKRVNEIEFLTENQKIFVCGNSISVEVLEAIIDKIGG

T1 sequence (O88508 608-908): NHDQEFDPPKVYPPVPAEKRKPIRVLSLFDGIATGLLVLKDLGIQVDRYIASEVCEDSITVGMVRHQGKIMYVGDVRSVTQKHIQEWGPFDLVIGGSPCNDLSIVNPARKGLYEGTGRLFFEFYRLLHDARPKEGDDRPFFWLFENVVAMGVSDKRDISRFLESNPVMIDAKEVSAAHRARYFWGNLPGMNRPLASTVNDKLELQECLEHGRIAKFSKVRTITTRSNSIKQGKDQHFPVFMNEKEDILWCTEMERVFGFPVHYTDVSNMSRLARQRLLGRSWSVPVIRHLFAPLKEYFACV

B1: GCGC/CGMG (dsDNA)
DNA 1: GAGCCAAGCGCACTCTGA
DNA 2: TCAGAGTGCGCTTGGCTC
modifications: 5-methylcytosine at strand 2 position 9
Does B1 bind (Dnmt3a-CD [1])?
Result: binds

B2: GCB+C/CGCG (dsDNA)
DNA 1: GAGCCAAGCGCACTCTGA
DNA 2: TCAGAGTGCGCTTGGCTC
modifications: (+)-trans-anti-B[a]PDE-N2-dG at strand 1 position 10
Does B2 bind (Dnmt3a-CD [2])?
Result: binds

B3: GCGC/CGCG (dsDNA)
DNA 1: GAGCCAAGCGCACTCTGA
DNA 2: TCAGAGTGCGCTTGGCTC
Does B3 bind (Dnmt3a-CD [3])?
Result: binds

Does B3 bind (M.SssI)?
Result: binds
